US20160264649A1

Experiments:
Assay in all cases: cell-based or functional assay
[1] = molecular target: HIV-1 Env of isolate MGRM-Chronic-B-010 (HIV-1)
[2] = molecular target: HIV-1 Env of isolate APV_13 (HIV-1)
[3] = molecular target: HIV-1 Env of isolate JRCSF (HIV-1) (UniProt P20871)
[4] = molecular target: HIV-1 Env of isolate 93IN905 (HIV-1)
[5] = molecular target: HIV-1 Env of isolate MGRM-Chronic-B-008 (HIV-1)
[6] = molecular target: HIV-1 Env of isolate MGRM-Chronic-B-001 (HIV-1)
[7] = molecular target: HIV-1 Env of isolate MGRM-Chronic-B-024 (HIV-1)
[8] = molecular target: HIV-1 Env of isolate MGRM-Chronic-B-003 (HIV-1)
[9] = molecular target: HIV-1 Env of isolate TRJ04551.58 (HIV-1)
[10] = molecular target: HIV-1 Env of isolate MGRM-Chronic-B-020 (HIV-1)
[11] = molecular target: HIV-1 Env of isolate NL43 (HIV-1)
[12] = molecular target: HIV-1 Env of isolate MGRM-Chronic-B-012 (HIV-1)
[13] = molecular target: HIV-1 Env of isolate 93MW959 (HIV-1)
[14] = molecular target: HIV-1 Env of isolate MGRM-Chronic-B-018 (HIV-1)
[15] = molecular target: HIV-1 Env of isolate MGRM-Chronic-B-023 (HIV-1)
[16] = molecular target: HIV-1 Env of isolate SC422661.8 (HIV-1)
[17] = molecular target: HIV-1 Env of isolate VLGCB3 (HIV-1)
[18] = molecular target: HIV-1 Env of isolate MGRM-Chronic-B-004 (HIV-1)
[19] = molecular target: HIV-1 Env of isolate THR0.18 (HIV-1)
[20] = molecular target: HIV-1 Env of isolate MGRM-Chronic-B-011 (HIV-1)
[21] = molecular target: HIV-1 Env of isolate MG RM-C-025 (HIV-1)
[22] = molecular target: HIV-1 Env of isolate 6535.3 (HIV-1)
[23] = molecular target: HIV-1 Env of isolate MG RM-C-023 (HIV-1)
[24] = molecular target: HIV-1 Env of isolate MG RM-C-022 (HIV-1)
[25] = molecular target: HIV-1 Env of isolate QH0692.42 (HIV-1)
[26] = molecular target: HIV-1 Env of isolate MG RM-C-024 (HIV-1)
[27] = molecular target: HIV-1 Env of isolate MG RM-C-020 (HIV-1)
[28] = molecular target: HIV-1 Env of isolate APV_6 (HIV-1)
[29] = molecular target: HIV-1 Env of isolate JRFL (HIV-1)
[30] = molecular target: HIV-1 Env of isolate MGRM-Chronic-B-017 (HIV-1)
[31] = molecular target: HIV-1 Env of isolate PVO.4 (HIV-1)
[32] = molecular target: HIV-1 Env of isolate MG RM-C-028 (HIV-1)
[33] = molecular target: HIV-1 Env of isolate 92 BR 020 (HIV-1)
[34] = molecular target: HIV-1 Env of isolate 93TH305 (HIV-1)
[35] = molecular target: HIV-1 Env of isolate MG RM-C-027 (HIV-1)
[36] = molecular target: HIV-1 Env of isolate 97ZA012 (HIV-1)
[37] = molecular target: HIV-1 Env of isolate MGRM-Chronic-B-002 (HIV-1)
[38] = molecular target: HIV-1 Env of isolate SF162 (HIV-1) (UniProt P19550)
[39] = molecular target: HIV-1 Env of isolate 98IN022 (HIV-1)
[40] = molecular target: HIV-1 Env of isolate CAAN.A2 (HIV-1)
[41] = molecular target: HIV-1 Env of isolate MG RM-C-026 (HIV-1)
[42] = molecular target: HIV-1 Env of isolate TRO.11 (HIV-1)
[43] = molecular target: HIV-1 Env of isolate APV_17 (HIV-1)

## PGT-122 monoclonal antibody (4877_D15)
[1]
  neutralization IC50: 0.018 µg/mL
[2]
  neutralization IC50: 0.778 µg/mL
[3]
  neutralization IC50: 0.057 µg/mL
[4]
  neutralization IC50: 0.013 µg/mL
[5]
  neutralization IC50: 0.017 µg/mL
[6]
  neutralization IC50: 0.138 µg/mL
[7]
  neutralization IC50: 2.31 µg/mL
[8]
  neutralization IC50: 0.008 µg/mL
[9]
  neutralization IC50: > 50 µg/mL
[10]
  neutralization IC50: 0.005 µg/mL
[11]
  neutralization IC50: > 50 µg/mL
[12]
  neutralization IC50: 0.066 µg/mL
[13]
  neutralization IC50: 0.016 µg/mL
[14]
  neutralization IC50: > 50 µg/mL
[15]
  neutralization IC50: 0.01 µg/mL
[16]
  neutralization IC50: 0.103 µg/mL
[17]
  neutralization IC50: 0.008 µg/mL
[18]
  neutralization IC50: 0.008 µg/mL
[19]
  neutralization IC50: > 50 µg/mL
[20]
  neutralization IC50: > 50 µg/mL
[21]
  neutralization IC50: 8.69 µg/mL
[22]
  neutralization IC50: 0.006 µg/mL
[23]
  neutralization IC50: 0.027 µg/mL
[24]
  neutralization IC50: 0.012 µg/mL
[25]
  neutralization IC50: 0.493 µg/mL
[26]
  neutralization IC50: 0.102 µg/mL
[27]
  neutralization IC50: 14 µg/mL
[28]
  neutralization IC50: 0.019 µg/mL
[29]
  neutralization IC50: 0.026 µg/mL
[30]
  neutralization IC50: 5.66 µg/mL
[31]
  neutralization IC50: 0.689 µg/mL
[32]
  neutralization IC50: 2.22 µg/mL
[33]
  neutralization IC50: 0.021 µg/mL
[34]
  neutralization IC50: 0.013 µg/mL
[35]
  neutralization IC50: 0.039 µg/mL
[36]
  neutralization IC50: 0.004 µg/mL
[37]
  neutralization IC50: 1.8 µg/mL
[38]
  neutralization IC50: 0.009 µg/mL
[39]
  neutralization IC50: 0.032 µg/mL
[40]
  neutralization IC50: 0.011 µg/mL
[41]
  neutralization IC50: 0.006 µg/mL
[42]
  neutralization IC50: 0.011 µg/mL
[43]
  neutralization IC50: 0.25 µg/mL

## PGT-121 monoclonal antibody (4838_L06; 4873_E03)
[1]
  neutralization IC50: 0.014 µg/mL
[2]
  neutralization IC50: 0.251 µg/mL
[3]
  neutralization IC50: 0.027 µg/mL
[4]
  neutralization IC50: 0.005 µg/mL
[5]
  neutralization IC50: 0.007 µg/mL
[6]
  neutralization IC50: 0.102 µg/mL
[7]
  neutralization IC50: 0.195 µg/mL
[8]
  neutralization IC50: 0.011 µg/mL
[9]
  neutralization IC50: 7.09 µg/mL
[10]
  neutralization IC50: 0.004 µg/mL
[11]
  neutralization IC50: > 50 µg/mL
[12]
  neutralization IC50: 0.036 µg/mL
[13]
  neutralization IC50: 0.013 µg/mL
[14]
  neutralization IC50: > 50 µg/mL
[15]
  neutralization IC50: 0.005 µg/mL
[16]
  neutralization IC50: 0.098 µg/mL
[17]
  neutralization IC50: 0.005 µg/mL
[18]
  neutralization IC50: 0.009 µg/mL
[19]
  neutralization IC50: > 50 µg/mL
[20]
  neutralization IC50: > 50 µg/mL
[21]
  neutralization IC50: 46.8 µg/mL
[22]
  neutralization IC50: 0.005 µg/mL
[23]
  neutralization IC50: 0.017 µg/mL
[24]
  neutralization IC50: 0.015 µg/mL
[25]
  neutralization IC50: 0.823 µg/mL
[26]
  neutralization IC50: 0.052 µg/mL
[27]
  neutralization IC50: > 50 µg/mL
[29]
  neutralization IC50: 0.021 µg/mL
[30]
  neutralization IC50: > 50 µg/mL
[31]
  neutralization IC50: 0.137 µg/mL
[32]
  neutralization IC50: 0.472 µg/mL
[33]
  neutralization IC50: 0.014 µg/mL
[34]
  neutralization IC50: 0.007 µg/mL
[35]
  neutralization IC50: 0.011 µg/mL
[36]
  neutralization IC50: 0.002 µg/mL
[37]
  neutralization IC50: 0.386 µg/mL
[38]
  neutralization IC50: 0.005 µg/mL
[39]
  neutralization IC50: 0.007 µg/mL
[40]
  neutralization IC50: 0.011 µg/mL
[41]
  neutralization IC50: 0.002 µg/mL
[42]
  neutralization IC50: 0.008 µg/mL
[43]
  neutralization IC50: 0.066 µg/mL
